Consider four molecules from PMC3179954, “A bacterial PriB with weak single-stranded DNA binding activity can stimulate the DNA unwinding activity of its cognate PriA helicase” (BMC Microbiology, 2011).

One may read the Km as the concentration of substrate that gives half-maximal velocity. A word on the kcat: it is the maximal rate divided by the concentration of active sites. A word on the Kd: it is the constant that tells how readily two partners part at equilibrium.

Substrate in data set [1]: Nc1ncnc2c1ncn2[C@@H]1O[C@H](COP(=O)(O)OP(=O)(O)OP(=O)(O)O)[C@@H](O)[C@H]1O
Nature of the data set: NADH-coupled spectrophotometric ATPase assay (pyruvate kinase / lactate dehydrogenase). The conditions noted are these: 100 nM Fork 3 DNA, no PriB, 10 nM PriA, 20 mM Hepes pH 8, 50 mM NaCl, 25°C. It counts as biochemical, Neisseria gonorrhoeae. An excerpt: NADH-coupled spectrophotometric ATPase assay (pyruvate kinase / lactate dehydrogenase) on N. gonorrhoeae PriA

A further data set addresses T1, PriA helicase (Neisseria gonorrhoeae, UniProt Q5F6V8 1-729).
T1 sequence: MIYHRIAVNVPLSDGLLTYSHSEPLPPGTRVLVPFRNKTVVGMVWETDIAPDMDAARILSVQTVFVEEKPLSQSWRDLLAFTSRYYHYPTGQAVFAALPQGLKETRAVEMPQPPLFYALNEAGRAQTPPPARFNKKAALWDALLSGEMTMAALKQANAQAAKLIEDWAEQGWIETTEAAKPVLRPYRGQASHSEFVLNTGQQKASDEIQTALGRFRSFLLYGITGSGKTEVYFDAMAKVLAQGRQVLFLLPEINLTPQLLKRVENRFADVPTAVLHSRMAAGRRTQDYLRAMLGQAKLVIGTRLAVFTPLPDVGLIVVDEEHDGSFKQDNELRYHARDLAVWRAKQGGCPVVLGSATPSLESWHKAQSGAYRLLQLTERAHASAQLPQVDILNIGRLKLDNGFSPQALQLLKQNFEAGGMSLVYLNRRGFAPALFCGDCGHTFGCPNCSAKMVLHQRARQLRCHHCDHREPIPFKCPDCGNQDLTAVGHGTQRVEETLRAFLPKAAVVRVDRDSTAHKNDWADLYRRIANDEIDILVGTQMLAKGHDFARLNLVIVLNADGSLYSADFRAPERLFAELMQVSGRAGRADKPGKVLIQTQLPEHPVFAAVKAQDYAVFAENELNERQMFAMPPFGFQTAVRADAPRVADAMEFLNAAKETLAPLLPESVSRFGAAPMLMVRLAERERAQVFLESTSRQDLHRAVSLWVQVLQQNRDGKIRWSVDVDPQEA
Nature of the data set: fluorescence polarization; 20 mM Tris-HCl pH 8, 10% glycerol, 50 mM NaCl, 1 mM 2-mercaptoethanol, 0.1 mg/ml BSA, 1 nM fluorescein-labeled DNA, 25 C. The conditions noted are these: protein: recombinant.

The target in the next data set is T2, PriB (Neisseria gonorrhoeae, UniProt Q5F924 1-100).
T2 sequence: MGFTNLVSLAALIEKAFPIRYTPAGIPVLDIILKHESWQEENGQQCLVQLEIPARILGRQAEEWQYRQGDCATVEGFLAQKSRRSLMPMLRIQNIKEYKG
The description is as above. The conditions noted are these: protein: recombinant, chain copies: 2.

The target in data set [2] is T3, N. gonorrhoeae PriA (N. gonorrhoeae) (UniProt Q5F6V8).
T3 sequence: T1 sequence

Data set [3] concerns the target T3, N. gonorrhoeae PriA (N. gonorrhoeae). This is another data set of the same source.
Where [4] appears, read: label: 3' fluorescein, single strand.
Where [5] appears, read: label: 3' fluorescein on S5 (nascent lagging strand), 25 bp duplex, 3' overhang 25 nt on strand 1.

B1: N. gonorrhoeae PriA (Neisseria gonorrhoeae FA 1090) (protein)
chain: T1 sequence
As for B1, in data set [1], the Km worked out at 54 ± 19 µM and the kcat turned out to be 9 ± 1 s⁻¹.

B2: ssDNA (oML228) (ssDNA)
DNA: AAGCACAATTACCCACGC
For B2, the values for the Kd in the data set with PriA helicase (setting [4]) and with PriB (setting [4]) were 307 ± 43 nM and 662 ± 37 nM, respectively.

B3: 3' Overhang (oML276/oML277) (mixed)
DNA 1: AACGTCATAGACGATTACATTGCTACATGGAGCTGTCTAGAGGATCCGAC
DNA 2: TAGCAATGTAATCGTCTATGACGTT
On to B3, for which the Kd in the data set with PriA helicase (setting [5]) amounted to 234 ± 62 nM; in the data set with PriB (setting [5]), 628 ± 95 nM.

B4: N. gonorrhoeae PriB (natural protein)
chain: T2 sequence
The molecule B4 displayed a percent unwinding of 1 nM Fork 3 by 2 nM PriA against PriB concentration (0 to 100 nM as monomers; 36% without PriB, near saturation at 20 nM) in data set [2] of 86%. In data set [3], this molecule yielded a fold stimulation of PriA helicase activity by PriB (unwinding with versus without PriB; 2 nM PriA, 100 nM PriB monomers, 1 nM 15 bp fork, Fork 1) of 1.2 fold; a fold stimulation of PriA helicase activity by PriB (unwinding with versus without PriB; 2 nM PriA, 100 nM PriB monomers, 1 nM 25 bp fork, Fork 2) of 1.7 fold; a fold stimulation of PriA helicase activity by PriB (unwinding with versus without PriB; 2 nM PriA, 100 nM PriB monomers, 1 nM 40 bp fork, Fork 3) of 2.4 fold.
